Results as given in patent US10280442B2, “Mutant sucrose phosphorylases with improved glycosylation activity towards polyphenols” (Universiteit Gent, priority 2015, dated 2019).
Substitutions are numbered along the chain they refer to. Names may count otherwise.

Tests used:
[1] = tested on: Thermoanaerobacterium thermosaccharolyticum sucrose phosphorylase (TtSPP), EC 2.4.1.329, wild type; conditions: sucrose as glycosyl donor; Verhaeghe et al., 2014; cited from earlier work
[2] = target: Thermoanaerobacterium thermosaccharolyticum sucrose phosphorylase (TtSPP) variant R134V, SEQ ID No 2 (Thermoanaerobacterium thermosaccharolyticum, UniProt D9TT09, R134V); test: Kinetics of resveratrol glycosylation by variant R134V (co-substrate sucrose); format: biochemical; conditions: 1M sucrose as co-substrate, pH 6.5, 55° C., 20% AMMOENG 101
Thermoanaerobacterium thermosaccharolyticum sucrose phosphorylase (TtSPP) variant R134V, SEQ ID No 2, sequence (D9TT09 whole entry R134V): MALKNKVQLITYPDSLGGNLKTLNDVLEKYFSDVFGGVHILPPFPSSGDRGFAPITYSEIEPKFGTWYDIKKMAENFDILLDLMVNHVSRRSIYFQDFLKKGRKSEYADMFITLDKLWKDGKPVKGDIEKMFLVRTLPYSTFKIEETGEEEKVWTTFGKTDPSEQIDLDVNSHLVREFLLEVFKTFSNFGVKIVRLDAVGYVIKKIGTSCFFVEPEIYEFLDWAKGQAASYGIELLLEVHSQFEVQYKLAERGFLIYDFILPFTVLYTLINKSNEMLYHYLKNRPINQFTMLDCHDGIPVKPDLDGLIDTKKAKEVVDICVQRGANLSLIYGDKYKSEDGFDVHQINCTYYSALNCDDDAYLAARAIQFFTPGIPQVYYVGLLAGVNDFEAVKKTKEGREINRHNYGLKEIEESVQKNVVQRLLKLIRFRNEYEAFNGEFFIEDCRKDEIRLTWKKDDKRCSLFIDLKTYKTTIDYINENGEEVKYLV
Procedure: (§1) Kinetics of enzyme variants on resveratrol were determined in an aqueous system containing 20% ionic liquid AMMOENG 101 (kindly provided by Evonik Industries AG) to dissolve the acceptor in a range of 0 to 200 mM. At this concentration of ionic liquid, the kinetic parameters of the enzyme for its natural substrates are not affected. Reactions were started combining 8.5 μM heat purified enzymes, 1 M sucrose and the respective acceptor-concentration at 55° C. To determine the initial velocity, samples were taken every 15 minutes for one hour, and inactivated by ten-fold dilution in pure ethanol. Product formation was again quantified by TLC and ImageJ analysis, using purified resveratrol 3-alpha-glucoside as TLC-standard and a respective standard curve for calculations. Kinetic parameters were calculated by non-linear regression of the Michaelis-Menten equation with Sigma Plot v13.0. All experiments were performed in triplicate to obtain kinetic parameters as reproducible mean values±standard errors.

[3] = target: T1, Thermoanaerobacterium thermosaccharolyticum sucrose phosphorylase (TtSPP) variant R134A, SEQ ID No 1 (Thermoanaerobacterium thermosaccharolyticum, UniProt D9TT09, R134A); test: Kinetics of resveratrol glycosylation by variant R134A (co-substrate sucrose); format: biochemical; conditions: 1M sucrose as co-substrate, pH 6.5, 55° C., 20% AMMOENG 101
T1 sequence (D9TT09 1-488 R134A): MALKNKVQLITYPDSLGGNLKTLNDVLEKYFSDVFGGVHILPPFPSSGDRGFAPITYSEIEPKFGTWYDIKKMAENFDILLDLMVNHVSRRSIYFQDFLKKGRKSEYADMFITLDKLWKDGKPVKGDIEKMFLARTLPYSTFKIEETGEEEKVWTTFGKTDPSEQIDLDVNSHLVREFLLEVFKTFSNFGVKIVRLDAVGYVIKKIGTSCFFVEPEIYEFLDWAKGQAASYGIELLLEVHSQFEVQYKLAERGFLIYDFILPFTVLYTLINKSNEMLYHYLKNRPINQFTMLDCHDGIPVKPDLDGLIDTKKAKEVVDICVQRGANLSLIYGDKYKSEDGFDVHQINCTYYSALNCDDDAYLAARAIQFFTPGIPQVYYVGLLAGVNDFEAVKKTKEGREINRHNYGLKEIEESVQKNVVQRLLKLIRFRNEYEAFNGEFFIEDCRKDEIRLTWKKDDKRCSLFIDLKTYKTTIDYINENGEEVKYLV
Procedure: as §1

[4] = substrate: Oc1ccc(/C=C/c2cc(O)cc(O)c2)cc1; test: Kinetics of resveratrol glycosylation by variant R134T (co-substrate sucrose); format: biochemical, Thermoanaerobacterium thermosaccharolyticum; conditions: other: variant R134T, 1M sucrose as co-substrate, pH 6.5, 55° C., 20% AMMOENG 101
Procedure: as §1

[5] = Screening assay, transglycosylation activity on quercetin (semi-quantitative TLC); format: biochemical; conditions: 1 gL^−1 enzyme, 10 gL^−1 acceptor, 1 M sucrose, pH 6.5, 37° C., 16 h; FIG. 2 A
Procedure: (§2) Heat-purified proteins (for tests on different acceptors) or crude protein extracts (for library screening) were incubated to a final concentration of 1 gL^−1 with 10 gL^−1 acceptor and 1 M sucrose in 50 mM MOPS-buffer at pH 6.5. Assays were performed at 37° C. in microtiterplates shaking at 200 rpm. The product amounts were evaluated after 16 h by semi-quantitative TLC-analysis: 1 μl of each sample solution was spotted on a Silica-plate (TLC-Silica gel 60 F254, Merck Millipore) and run in a solvent system from ethylacetate:methanol:water (30:5:4, v/v/v). Plates were oxidized with 10% sulphuric acid and spot intensities were determined using ImagaJ.

[6] = Screening assay, transglycosylation activity on resveratrol (semi-quantitative TLC); format: biochemical; conditions: 1 gL^−1 enzyme, 10 gL^−1 acceptor, 1 M sucrose, pH 6.5, 37° C., 16 h; FIG. 1
Procedure: as §2

[7] = Production of resveratrol 3-alpha-glucoside in aqueous system, followed by HPLC; format: biochemical; conditions: 1 M sucrose, saturated suspension of 10 g·L^−1 resveratrol, 24 h, 55° C., pH 6.5
Procedure: Up-scaling of the transglycosylation reactions on resveratrol was performed up to 400 ml volumes. Reactors were stirred continuously at 55° C. for 24 h, and contained 1 M sucrose, 1 mgL^−1 enzyme and 10 gL^−1 of resveratrol (suspension) in 50 mM MOPS-buffer pH 6.5. Thanks to the quantitative conversion of resveratrol, its glucoside could be simply isolated by repeated ethylacetate extractions to a purity of >90%. The solvent was evaporated and the dried product analyzed by HPLC to determine purity and yield. To verify the identity of the compound by NMR and to produce the standards (TLC, H PLC), further purification was performed by column chromatography on silica gel (EtOAC:MeOH:H2O; 30:5:4; v/v/v) as described earlier (De Winter et al, 2013).
Reactions were followed for 24 h. […] Supernatants were filtered through a 0.2 μm polystyrol filter, diluted in DMSO and analyzed by HPLC using a polar Waters XBridge Amide column (250×4.6 mm, 3.5 μm) and an Alltech 2000ES ELSD-detector (40° C., gas flow 1.5 Lmin^−1), supplied with a gradient mixture of eluent A (acetonitrile, 0.2% triehtylamine) and eluent B (0.2% triethylamine): 90% solvent A (6 min), 10-25% solvent B (stepwise, 3% min^−1), 25% solvent B (20 min) and 90% solvent A (10 min). Concentrations of ingredients and respective yields were calculated according to standards of fructose, glucose and resveratrol 3-alpha-glucoside.

[8] = Qualitative survey of promiscuity on diverse polyphenolic acceptors; format: biochemical; conditions: FIG. 2 B
Procedure: as §2

OC[C@H]1O[C@@](CO)(O[C@H]2O[C@H](CO)[C@@H](O)[C@H](O)[C@H]2O)[C@@H](O)[C@@H]1O [sucrose]
Km [1]: 77 mM

Oc1ccc(/C=C/c2cc(O)cc(O)c2)cc1 [resveratrol, trans-3,4′,5-trihydroxystilbene]
kcat [2]: 0.45 ± 0.02 s⁻¹
kcat [3]: 2.36 ± 0.25 s⁻¹

B1: Thermoanaerobacterium thermosaccharolyticum sucrose phosphorylase (TtSPP) variant R134T, SEQ ID No 3 (Thermoanaerobacterium thermosaccharolyticum DSM 571; … (protein)
chain: T1 sequence (D9TT09 1-488 R134A) with A134T
Km [4]: 56 ± 8 mM
kcat [4]: 0.08 ± 0.004 s⁻¹
kcat/Km [4]: 1.4 ± 0.2 M⁻¹ s⁻¹

B2: BaSP: wild-type thermostable sucrose phosphorylase of Bifidobacterium adolescentis (protein, UniProt A0ZZH6 1-504, looked up)
Sucrose phosphorylase: MKNKVQLITYADRLGDGTIKSMTDILRTRFDGVYDGVHILPFFTPFDGADAGFDPIDHTKVDERLGSWDDVAELSKTHNIMVDAIVNHMSWESKQFQDVLAKGEESEYYPMFLTMSSVFPNGATEEDLAGIYRPRPGLPFTHYKFAGKTRLVWVSFTPQQVDIDTDSDKGWEYLMSIFDQMAASHVSYIRLDAVGYGAKEAGTSCFMTPKTFKLISRLREEGVKRGLEILIEVHSYYKKQVEIASKVDRVYDFALPPLLLHALSTGHVEPVAHWTDIRPNNAVTVLDTHDGIGVIDIGSDQLDRSLKGLVPDEDVDNLVNTIHANTHGESQAATGAAASNLDLYQVNSTYYSALGCNDQHYIAARAVQFFLPGVPQVYYVGALAGKNDMELLRKTNNGRDINRHYYSTAEIDENLKRPVVKALNALAKFRNELDAFDGTFSYTTDDDTSISFTWRGETSQATLTFEPKRGLGVDNTTPVAMLEWEDSAGDHRSDDLIANPPVVA
transglycosylation activity on quercetin [5]: neither had activity on quercetin
transglycosylation activity on resveratrol [6]: Neither of these enzymes display significant activity on resveratrol

B3: R134A: variant R134A of TtSPP sucrose phosphorylase from Thermoanaerobacterium thermosaccharolyticum (protein)
chain: T1 sequence (D9TT09 1-488 R134A)
modifications: mutant of sucrose phosphorylase of bacterium Thermoanaerobacterium thermosaccharolyticum
transglycosylation activity on quercetin [5]: significant amounts of transglycosylation product could be detected
resveratrol 3-alpha-glucoside produced [7]: 17.1 ± 0.6 g/L
conversion of resveratrol (acceptor) ([7]; FIG. 3): complete conversion of the acceptor
transglycosylation activity on resveratrol [6]: retained more than half of its activity on resveratrol
activity on flavonoids and phenoxyphenols (acceptor promiscuity) [8]: displayed activity on structures from all five major classes of flavonoids
